In article PMC9759587:

Legend:
IgG1 Fc^E382A (human) = assay: crystal structure; IdeS^C94A and IgG1 Fc^E382A combined 1:1, complex purified by SEC, exchanged into 50 mM HEPES, 150 mM KCl pH 7.5; crystals in Morpheus condition (0.12 M monosaccharides mix, buffer system 3 pH 8.5, 30 % precipitant mix 1); space group C121, twinned data, 2.34 Å
IgG1 Fc^E382R (human) = assay: crystal structure; EndoS^D233A/E235L and IgG1 Fc^E382R combined 1:1, complex purified by SEC, exchanged into 50 mM HEPES, 150 mM KCl pH 7.5; crystals in Morpheus condition (0.09 M halogens, buffer system 2 pH 7.5, 37.5 % precipitant mix 4); space group P2_(1)2_(1)2_(1), 3.45 Å

Substance	stoichiometry N (IgG1 Fc^E382A (human))	stoichiometry N (EndoS per IgG1 Fc molecule) (IgG1 Fc^E382R (human))
IdeS^C94A (IdeS from Streptococcus pyogenes strain MGAS15252, Mac-2 variant, amino acids 41-339) (enzyme)	1 IdeS per Fc	–
EndoS^D233A/E235L (truncated EndoS, residues 98-995) (from UniProt Q99Y92 98-995) (enzyme)	–	2
